Laboratory results taken from PMC10586804.
Blank lines part the entries; values can stand above or below the substance they belong to.

Columns and labels:
[1] = target: chimeric V2R harboring the carboxy-terminal tail of the β2-adrenergic receptor
[2] = target: vasopressin type 2 receptor (UniProt P30518)
[3] = target: vasopressin type 2 receptor (UniProt P30518); remark: listed apart in the source

- AVP-mediated maximal efficacy of Rluc-mGs recruitment to early endosomes (EbBRET with rGFP-Rab5), AVP dose-response, 45 min, cells expressing V2β2AR [1]: 0.15 ΔEbBRET
- AVP-mediated maximal efficacy of Rluc-mGs recruitment to the plasma membrane (EbBRET with rGFP-CAAX), AVP dose-response, 10 min, cells expressing V2β2AR [1]: 0.392 ΔEbBRET
- Potency of AVP (logEC50) for Rluc-mGs recruitment to early endosomes (EbBRET with rGFP-Rab5), 45 min, cells expressing V2β2AR [1]: -8.34 logEC50
- Potency of AVP (logEC50) for Rluc-mGs recruitment to the plasma membrane (EbBRET with rGFP-CAAX), 10 min, cells expressing V2β2AR [1]: -8.07 logEC50
- Transduction coefficient log(τ/Ka) of Rluc-mGs recruitment to early endosomes (EbBRET with rGFP-Rab5), cells expressing V2β2AR [1]: 8.31 log(τ/Ka)
- Transduction coefficient log(τ/Ka) of Rluc-mGs recruitment to the plasma membrane (EbBRET with rGFP-CAAX), cells expressing V2β2AR [1]: 8.04 log(τ/Ka)
- AVP-mediated maximal efficacy of Rluc-mGs recruitment to early endosomes (EbBRET with rGFP-Rab5), AVP dose-response, 45 min, cells expressing V2R [2]: 0.167 ΔEbBRET
- AVP-mediated maximal efficacy of Rluc-mGs recruitment to the plasma membrane (EbBRET with rGFP-CAAX), AVP dose-response, 10 min, cells expressing V2R [2]: 0.3 ΔEbBRET
- Potency of AVP (logEC50) for Rluc-mGs recruitment to early endosomes (EbBRET with rGFP-Rab5), 45 min, cells expressing V2R [2]: -8.65 logEC50
- Potency of AVP (logEC50) for Rluc-mGs recruitment to the plasma membrane (EbBRET with rGFP-CAAX), 10 min, cells expressing V2R [2]: -8.07 logEC50
- Transduction coefficient log(τ/Ka) of Rluc-mGs recruitment to early endosomes (EbBRET with rGFP-Rab5), cells expressing V2R [2]: 8.63 log(τ/Ka)
- Transduction coefficient log(τ/Ka) of Rluc-mGs recruitment to the plasma membrane (EbBRET with rGFP-CAAX), cells expressing V2R [2]: 7.98 log(τ/Ka)
- AVP-induced maximal efficacy of Rluc-mGs recruitment to early endosomes (EbBRET with rGFP-Rab5), AVP dose-response, 45 min, parental HEK293 cells [3]: 0.18 ΔEbBRET
- AVP-induced maximal efficacy of Rluc-mGs recruitment to early endosomes (EbBRET with rGFP-Rab5), AVP dose-response, 45 min, Δβarr1/2 HEK293 cells [3]: 0.074 ΔEbBRET
- AVP-induced maximal efficacy of Rluc-mGs recruitment to the plasma membrane (EbBRET with rGFP-CAAX), AVP dose-response, 10 min, parental HEK293 cells [3]: 0.324 ΔEbBRET
- AVP-induced maximal efficacy of Rluc-mGs recruitment to the plasma membrane (EbBRET with rGFP-CAAX), AVP dose-response, 10 min, Δβarr1/2 HEK293 cells [3]: 0.376 ΔEbBRET
- Potency of AVP (LogEC50) for Rluc-mGs recruitment to early endosomes (EbBRET with rGFP-Rab5), 45 min, parental HEK293 cells [3]: -8.37 LogEC50
- Potency of AVP (LogEC50) for Rluc-mGs recruitment to early endosomes (EbBRET with rGFP-Rab5), 45 min, Δβarr1/2 HEK293 cells [3]: -8.34 LogEC50
- Potency of AVP (LogEC50) for Rluc-mGs recruitment to the plasma membrane (EbBRET with rGFP-CAAX), 10 min, parental HEK293 cells [3]: -7.9 LogEC50
- Potency of AVP (LogEC50) for Rluc-mGs recruitment to the plasma membrane (EbBRET with rGFP-CAAX), 10 min, Δβarr1/2 HEK293 cells [3]: -7.99 LogEC50
Substance: mini G protein mGs

- AVP-mediated maximal efficacy of Rluc-mGsq recruitment to early endosomes (EbBRET with rGFP-Rab5), AVP dose-response, 45 min, cells expressing V2β2AR [1]: 0.061 ΔEbBRET
- AVP-mediated maximal efficacy of Rluc-mGsq recruitment to the plasma membrane (EbBRET with rGFP-CAAX), AVP dose-response, 10 min, cells expressing V2β2AR [1]: 0.183 ΔEbBRET
- Potency of AVP (logEC50) for Rluc-mGsq recruitment to early endosomes (EbBRET with rGFP-Rab5), 45 min, cells expressing V2β2AR [1]: -7.82 logEC50
- Potency of AVP (logEC50) for Rluc-mGsq recruitment to the plasma membrane (EbBRET with rGFP-CAAX), 10 min, cells expressing V2β2AR [1]: -7.97 logEC50
- Transduction coefficient log(τ/Ka) of Rluc-mGsq recruitment to early endosomes (EbBRET with rGFP-Rab5), cells expressing V2β2AR [1]: 7.91 log(τ/Ka)
- Transduction coefficient log(τ/Ka) of Rluc-mGsq recruitment to the plasma membrane (EbBRET with rGFP-CAAX), cells expressing V2β2AR [1]: 7.99 log(τ/Ka)
- AVP-mediated maximal efficacy of Rluc-mGsq recruitment to early endosomes (EbBRET with rGFP-Rab5), AVP dose-response, 45 min, cells expressing V2R [2]: 0.05 ΔEbBRET
- AVP-mediated maximal efficacy of Rluc-mGsq recruitment to the plasma membrane (EbBRET with rGFP-CAAX), AVP dose-response, 10 min, cells expressing V2R [2]: 0.161 ΔEbBRET
- Potency of AVP (logEC50) for Rluc-mGsq recruitment to early endosomes (EbBRET with rGFP-Rab5), 45 min, cells expressing V2R [2]: -8.44 logEC50
- Potency of AVP (logEC50) for Rluc-mGsq recruitment to the plasma membrane (EbBRET with rGFP-CAAX), 10 min, cells expressing V2R [2]: -7.88 logEC50
- Transduction coefficient log(τ/Ka) of Rluc-mGsq recruitment to early endosomes (EbBRET with rGFP-Rab5), cells expressing V2R [2]: 8.31 log(τ/Ka)
- Transduction coefficient log(τ/Ka) of Rluc-mGsq recruitment to the plasma membrane (EbBRET with rGFP-CAAX), cells expressing V2R [2]: 7.9 log(τ/Ka)
- AVP-induced maximal efficacy of Rluc-mGsq recruitment to early endosomes (EbBRET with rGFP-Rab5), AVP dose-response, 45 min, parental HEK293 cells [3]: 0.05 ΔEbBRET
- AVP-induced maximal efficacy of Rluc-mGsq recruitment to early endosomes (EbBRET with rGFP-Rab5), AVP dose-response, 45 min, Δβarr1/2 HEK293 cells [3]: 0.024 ΔEbBRET
- AVP-induced maximal efficacy of Rluc-mGsq recruitment to the plasma membrane (EbBRET with rGFP-CAAX), AVP dose-response, 10 min, parental HEK293 cells [3]: 0.168 ΔEbBRET
- AVP-induced maximal efficacy of Rluc-mGsq recruitment to the plasma membrane (EbBRET with rGFP-CAAX), AVP dose-response, 10 min, Δβarr1/2 HEK293 cells [3]: 0.18 ΔEbBRET
- Potency of AVP (LogEC50) for Rluc-mGsq recruitment to early endosomes (EbBRET with rGFP-Rab5), 45 min, parental HEK293 cells [3]: -8.38 LogEC50
- Potency of AVP (LogEC50) for Rluc-mGsq recruitment to early endosomes (EbBRET with rGFP-Rab5), 45 min, Δβarr1/2 HEK293 cells [3]: -8.32 LogEC50
- Potency of AVP (LogEC50) for Rluc-mGsq recruitment to the plasma membrane (EbBRET with rGFP-CAAX), 10 min, parental HEK293 cells [3]: -7.81 LogEC50
- Potency of AVP (LogEC50) for Rluc-mGsq recruitment to the plasma membrane (EbBRET with rGFP-CAAX), 10 min, Δβarr1/2 HEK293 cells [3]: -7.95 LogEC50
Substance: mini G protein mGsq
